Patent US20140242093A1, “METHODS AND COMPOSITIONS FOR MODULATING THE INNATE IMMUNE RESPONSE AND/OR MYOGENESIS IN A MAMMALIAN SUBJECT” (FRED HUTCHINSON CANCER RESEARCH CENTER, priority 2011, published 2014)

Test system: control human primary myoblasts
Experiment: Expression microarray of primary myoblasts transduced with lentivirus carrying DUX4-fl, DUX4-s or GFP
Description: Primary human myoblasts were collected and cultured as previously described (Snider et al., 2010). Primary myoblasts were maintained at or below 70% confluency for proliferation. For differentiation, cells were allowed to reach 95-100% confluency in growth medium. Once confluency was reached, the cells were changed to differentiation medium (F10 media supplemented with 1% horse serum, 10 μg/mL insulin, and 10 μg/mL transferrin, penicillin/streptomycin) and maintained for 4 days. Human RD cells were grown in DMEM in 10% bovine calf serum (Hyclone) and penicillin/streptomycin. The primary myoblasts were transduced with lentivirus carrying DUX-fl, DUX4- or GFP (MOI=15).
Expression microarrays were performed on the transduced cells at 24 hours after transduction as follows. […] Samples were analyzed by Illumina Human Whole Genome microarrays. Probe intensities were corrected, normalized, and summarized by the Lumi package of Bioconductor (Du et al., 2008). Differentially expressed genes were identified by the LIMMA package of Bioconductor (Wettenhall and Smyth, 2004). Gene set enrichment analysis (GSEA) was performed using the Bioconductor GOstats package (Falcon and Gentleman, 2007).

B1: DUX4-s: short splice form of DUX4 (SEQ ID NO:112), keeps the double-homeobox domains, lacks the C-terminal activation domain (protein, listed as Homo sapiens)
chain: MALPTPSDSTLPAEARGRGRRRRLVWTPSQSEALRACFERNPYPGIATRERLAQAIGIPEPRVQIWFQNERSRQLRQHRRESRPWPGRRGPPEGRRKRTAVTGSQTALLLRAFEKDRFPGIAAREELARETGLPESRIQIWFQNRRARHPGQGGRAPAQV
- C1orf55 expression fc (Refseq NM_152608.3): −0.3632
- MLKL expression fc (Refseq NM_152649.1, cultured human skeletal muscle): 1.457
- ZSCAN4 expression fc (Refseq NM_152677.1): 0.04366
- SAMD9L expression fc (Refseq NM_152703.2, cultured human skeletal muscle): 1.257
- VWCE expression fc (Refseq NM_152718.2, cultured human skeletal muscle): −0.1213
- fc of D2HGDH (expression array) (Refseq NM_152783.3): −0.3982
- FAS fc (Refseq NM_152877.1): 0.1452
- APCDD1 expression fc (Refseq NM_153000.3, cultured human skeletal muscle): −0.4301
- PMP22 fc (Refseq NM_153321.1): 0.2667
- SLC2A14 expression fc (Refseq NM_153449.2): 0.2472
- CYBASC3 expression fc (Refseq NM_153611.3, cultured human skeletal muscle): −0.4218
- GPBAR1 expression fc (Refseq NM_170699.2): −0.1298
- NLRX1 fc (Refseq NM_170722.1): −0.1409
- fc of HSCB (expression array) (Refseq NM_172002.3): 0.1735
- fc of ZNF650 (expression array) (Refseq NM_172070.2): 0.6904
- fc of IL4I1 (expression array) (Refseq NM_172374.1): 1.769
- KLF17 expression fc (Refseq NM_173484.3): 0.08045
- fc of RCOR2 (expression array) (Refseq NM_173587.2): −0.1949
- fc of DCBLD1 (expression array) (Refseq NM_173674.1): 1.594
- WARS expression fc (Refseq NM_173701.1, cultured human skeletal muscle): 1.715
- fc of C3orf38 (expression array) (Refseq NM_173824.2): 1.033
- fc of UBR1 (expression array) (Refseq NM_174916.1): 1.111
- fc of C4orf34 (expression array) (Refseq NM_174921.1): 0.6119
- FRMD3 fc (Refseq NM_174938.3): −0.2907
- MT1E expression fc (Refseq NM_175617.3, cultured human skeletal muscle): 0.1289
- TXLNA fc (Refseq NM_175852.3): −0.1621
- MT1M expression fc (Refseq NM_176870.2, cultured human skeletal muscle): 1.185
- PPAP2A fc (Refseq NM_176895.1): 0.545
- CSE1L expression fc (Refseq NM_177436.1): 0.07287
- PPM1B expression fc (Refseq NM_177968.2): −0.0342
- fc of STARD13 (expression array) (Refseq NM_178006.1): −0.8963
- RILPL1 fc (Refseq NM_178314.2): 0.6233
- HIF1A fc (Refseq NM_181054.1): 0.4209
- ID1 fc (Refseq NM_181353.1): 0.7329
- C1QTNF3 expression fc (Refseq NM_181435.4): −0.02264
- PPP2R2B expression fc (Refseq NM_181677.1): −0.1091
- PPP2R2C fc (Refseq NM_181876.2): −0.2308
- BCL9L fc (Refseq NM_182557.2): 0.7326
- fc of IRF2BP2 (expression array) (Refseq NM_182972.2): −0.806
- fc of TRIM69 (expression array) (Refseq NM_182985.3): 0.2639
- fc of TRIM55 (expression array) (Refseq NM_184086.1): 0.1967
- RBM39 expression fc (Refseq NM_184234.1): 0.263
- INO80C expression fc (Refseq NM_194281.3): −0.1128
- SPTY2D1 expression fc (Refseq NM_194285.2): −0.2916
- fc of RNASE4 (expression array) (Refseq NM_194431.1): −0.1107
- BID fc (Refseq NM_197966.1): −0.1675
- fc of MZF1 (expression array) (Refseq NM_198055.1): 0.05558
- fc of ARSK (expression array) (Refseq NM_198150.1): 1.03
- fc of SRC (expression array) (Refseq NM_198291.1): 0.0569
- fc of APOOL (expression array) (Refseq NM_198450.3): 1.369
- DENND2C expression fc (Refseq NM_198459.2): −0.2684
- TPRX1 expression fc (Refseq NM_198479.2): −0.05019
- AGRN expression fc (Refseq NM_198576.2, cultured human skeletal muscle): 0.3808
- C1QTNF1 expression fc (Refseq NM_198594.1, cultured human skeletal muscle): 0.7696
- fc of SERPINB8 (expression array) (Refseq NM_198833.1): 1.016
- SEMA4B expression fc (Refseq NM_198925.1, cultured human skeletal muscle): 0.1542
- C9orf169 expression fc (Refseq NM_199001.1, cultured human skeletal muscle): −0.05213
- T1560 expression fc (Refseq NM_199048.1): 0.02012
- XAF1 expression fc (Refseq NM_199139.1, cultured human skeletal muscle): 0.6222
- SAA1 expression fc (Refseq NM_199161.1, cultured human skeletal muscle): 0.2569
- C20orf117 fc (Refseq NM_199181.2): −0.5322
- fc of TMEM189-UBE2V1 (expression array) (Refseq NM_199203.1): 0.06378
- DGKA expression fc (Refseq NM_201554.1, cultured human skeletal muscle): 0.1014
- fc of ZMYM3 (expression array) (Refseq NM_201599.1): −0.01297
- FBXO33 expression fc (Refseq NM_203301.1): 0.2162
- SYNJ1 expression fc (Refseq NM_203446.1): −0.07515
- fc of CMPK2 (expression array) (Refseq NM_207315.2): 1.351
- CYP4V2 fc (Refseq NM_207352.2): −0.4989
- fc of C15orf52 (expression array) (Refseq NM_207380.1): −0.2956
- FLJ45337 expression fc (Refseq NM_207465.1): −0.2461
- ATP2B1 fc (Refseq NM_001001323.1): −0.7039
- FLJ45139 expression fc (Refseq NM_001001692.1): 0.1009
- OR2T34 expression fc (Refseq NM_001001821.1): −0.05408
- fc of GPM6B (expression array) (Refseq NM_001001995.1): −1.119
- NT5C1B expression fc (Refseq NM_001002006.1): −0.03655
- fc of NT5C3 (expression array) (Refseq NM_001002010.1): 1.882
- RAB11FIP1 expression fc (Refseq NM_001002814.1): −0.4765
- fc of LEPR (expression array) (Refseq NM_001003679.1): −0.5494
- ZNF705A expression fc (Refseq NM_001004328.1): −0.06059
- HIST2H3A expression fc (Refseq NM_001005464.2): −0.05203
- GBA fc (Refseq NM_001005742.1): 0.289
- SIAH1 expression fc (Refseq NM_001006610.1): −0.0793
- OPTN fc (Refseq NM_001008213.1): −0.5727
- SLC7A2 expression fc (Refseq NM_001008539.2, cultured human skeletal muscle): −0.1055
- CXCR4 expression fc (Refseq NM_001008540.1): −0.0521
- fc of CLSTN1 (expression array) (Refseq NM_001009566.1): −0.2768
- PRAMEF4 expression fc (Refseq NM_001009611.1): 0.0423
- C6orf191 expression fc (Refseq NM_001010876.1): −0.05752
- PRAMEF6 expression fc (Refseq NM_001010889.2): −0.06189
- PRAMEF9 expression fc (Refseq NM_001010890.1): −0.07265
- PRAMEF8 expression fc (Refseq NM_001012276.1): 0.1662
- PRAMEF7 expression fc (Refseq NM_001012277.1): 0.106
- fc of MYPOP (expression array) (Refseq NM_001012643.2): −0.03552
- PRAMEF5 expression fc (Refseq NM_001013407.1): 0.1054
- HNRNPCL1 expression fc (Refseq NM_001013631.1): −0.1035
- RFPL4B expression fc (Refseq NM_001013734.2): −0.1031
- ODF3B fc (Refseq NM_001014440.2): 0.4296
- DNAJC25 expression fc (Refseq NM_001015882.2): −0.5072
- KCNK2 fc (Refseq NM_001017425.2): 0.2137
- CCDC58 expression fc (Refseq NM_001017928.2): 0.07678
- fc of ATP6AP1L (expression array) (Refseq NM_001017971.1): 0.02803
- SH3PXD2B fc (Refseq NM_001017995.1): −0.01555
- ZBTB16 expression fc (Refseq NM_001018011.1, cultured human skeletal muscle): 0.4921
- fc of SERBP1 (expression array) (Refseq NM_001018069.1): −1.179
- SOD2 expression fc (Refseq NM_001024466.1, cultured human skeletal muscle): 1.532
- fc of RUNX2 (expression array) (Refseq NM_001024630.2): 0.05524
- CLK1 expression fc (Refseq NM_001024646.1): 0.0752
- fc of TGFBR2 (expression array) (Refseq NM_001024847.1): 0.1743
- TSPAN4 fc (Refseq NM_001025235.1): −0.1169
- fc of RFX5 (expression array) (Refseq NM_001025603.1): −0.06023
- PSRC1 fc (Refseq NM_001032290.1): −0.4871
- OAS1 expression fc (Refseq NM_001032409.1, cultured human skeletal muscle): 1.453
- ENTPD8 expression fc (Refseq NM_001033113.1): 0.03523
- RHOT1 fc (Refseq NM_001033566.1): 0.3308
- CYFIP2 fc (Refseq NM_001037333.1): −0.633
- fc of PHYH (expression array) (Refseq NM_001037537.1): −0.5757
- fc of EFEMP1 (expression array) (Refseq NM_001039348.1): −0.2077
- PRAMEF10 expression fc (Refseq NM_001039361.1): 0.008756
- ETNK1 expression fc (Refseq NM_001039481.1): 0.06444
- LOC440053 expression fc (Refseq NM_001039615.1): −0.09982
- CBLN3 fc (Refseq NM_001039771.2): 0.1543
- HEY1 expression fc (Refseq NM_001040708.1): −0.04271
- fc of UHRF1 (expression array) (Refseq NM_001048201.1): −1.034
- DBNDD2 expression fc (Refseq NM_001048223.1): 0.2257
- NCOR2 fc (Refseq NM_001077261.1): −0.2241
- fc of NFKB2 (expression array) (Refseq NM_001077493.1): 0.2202
- fc of SLC29A1 (expression array) (Refseq NM_001078174.1): −1.034
- DYNC2H1 expression fc (Refseq NM_001080463.1): 0.04558
- PRAMEF12 expression fc (Refseq NM_001080830.1): 0.1269
- FRG2B expression fc (Refseq NM_001080998.1): 0.1315
- DEFB103A expression fc (Refseq NM_001081551.2): 0.06581
- CPSF4 fc (Refseq NM_001081559.1): −0.2674
- fc of GPD2 (expression array) (Refseq NM_001083112.1): 1.197
- fc of GPR1 (expression array) (Refseq NM_001098199.1): 0.2201
- HLA-F expression fc (Refseq NM_001098479.1, cultured human skeletal muscle): 0.9368
- RFPL3 expression fc (Refseq NM_001098535.1): −0.06033
- PRR4 expression fc (Refseq NM_001098538.1): 0.1606
- FAM156B fc (Refseq NM_001099684.1): −0.1712
